B1: Ribonuclease HII, O74035 (parent)
chain: MKIAGIDEAGRGPVIGPMVIAAVVVDENSLPKLEELKVRDSKKLTPKRREKLFNEILGVLDDYVILELPPDVIGSREGTLNEFEVENFAKALNSLKVKPDVIYADAADVDEERFARELGERLNFEAEVVAKHKADDIFPVVSAASILAKVTRDRAVEKLKEEYGEIGSGYPSDPRTRAFLENYYREHGEFPPIVRKGWKTLKKIAEKVESEKKAEERQATLDRYFRKV

The series covers variants of B1. The conditions noted are these: Thermococcus kodakarensis (strain ATCC BAA-918 / JCM 12380 / KOD1), pH 9, CD, reversible: Yes, structure 1IO2, whole UniProt chain shown; for ddG of mutation (higher = less stable) / denaturant m value / denaturant midpoint (higher = more stable) / unfolding free energy: 50 °C, GdnHCl, Tris-HCl 20 mM; for Tm / change of melting temperature, mutant - wild type (higher = more stable): Thermal, Gly-NaOH 20 mM.

As a reminder, the Tm is the temperature at which the thermal transition is half complete.

In the case of MKIAGIDEAGRGPVIGPMVIAAVVVDENSLPKLEELKVRDSKKLTPKRREKLFNEILGVLDDYVILELPPDVIGSREGTLNEFEVENFAKALNSLKVKPDVIYADAADVDEERFAREAGERLNFEAEVVAKHKADDIFPVVSAASILAKVTRDRAVEKLKEEYGEIGSGYPSDPRTRAFLENYYREHGEFPPIVRKGWKTLKKIAEKVESEKKAEERQATLDRYFRKV [L118A], the “ddG of mutation (higher = less stable)” value worked out at 5.26 kcal/mol, the denaturant m value came to 5.9 kcal/mol/M, the “denaturant midpoint (higher = more stable)” value (shortened to “denaturant midpoint”) worked out at 0.9 M and the unfolding free energy worked out at 5.31 kcal/mol. Moreover, the midpoint of thermal melting (Tm) was found to be 70.8 °C and the “change of melting temperature, mutant - wild type (higher = more stable)” value (shortened to “change of melting temperature, mutant”) was -13.7 °C.
Take MKIAGIDEAGRGPVIGPMVAAAVVVDENSLPKLEELKVRDSKKLTPKRREKLFNEILGVLDDYVILELPPDVIGSREGTLNEFEVENFAKALNSLKVKPDVIYADAADVDEERFARELGERLNFEAEVVAKHKADDIFPVVSAASILAKVTRDRAVEKLKEEYGEIGSGYPSDPRTRAFLENYYREHGEFPPIVRKGWKTLKKIAEKVESEKKAEERQATLDRYFRKV [I20A]: the “ddG of mutation (higher = less stable)” value came to 4.42 kcal/mol, the denaturant m value is 5.74 kcal/mol/M, the “denaturant midpoint” value is 1.05 M and the unfolding free energy was 6.05 kcal/mol. The Tm is 76.1 °C and the “change of melting temperature, mutant” value was -8.4 °C.
As for MKIAGIDEAGRGPVIGPMVIAAVVVDENSLPKLEELKVRDSKKLTPKRREKLFNEALGVLDDYVILELPPDVIGSREGTLNEFEVENFAKALNSLKVKPDVIYADAADVDEERFARELGERLNFEAEVVAKHKADDIFPVVSAASILAKVTRDRAVEKLKEEYGEIGSGYPSDPRTRAFLENYYREHGEFPPIVRKGWKTLKKIAEKVESEKKAEERQATLDRYFRKV [I56A], the “ddG of mutation (higher = less stable)” value was 3.97 kcal/mol, the denaturant m value is 5.35 kcal/mol/M, the “denaturant midpoint” value was 1.13 M and the unfolding free energy is 6.05 kcal/mol. Besides, the Tm turned out to be 75.8 °C and the “change of melting temperature, mutant” value is -8.7 °C.
Regarding MKIAGADEAGRGPVIGPMVIAAVVVDENSLPKLEELKVRDSKKLTPKRREKLFNEILGVLDDYVILELPPDVIGSREGTLNEFEVENFAKALNSLKVKPDVIYADAADVDEERFARELGERLNFEAEVVAKHKADDIFPVVSAASILAKVTRDRAVEKLKEEYGEIGSGYPSDPRTRAFLENYYREHGEFPPIVRKGWKTLKKIAEKVESEKKAEERQATLDRYFRKV [I6A], the midpoint of thermal melting (Tm) is 79.3 °C and the “change of melting temperature, mutant” value was -5.2 °C.
In the case of MKIAGIDEAGRGPVIGPMVIAAVVVDENSLPKLEELKVRDSKKLTPKRREKLFNEILGVLDDYVILELPPDVIGSREGTLNEFEVENFAKALNSLKVKPDVIYADAADVDEERFARELGERLNFEAEVVAKHKADDIFPVVSAASIAAKVTRDRAVEKLKEEYGEIGSGYPSDPRTRAFLENYYREHGEFPPIVRKGWKTLKKIAEKVESEKKAEERQATLDRYFRKV [L147A], the “ddG of mutation (higher = less stable)” value stood at 2.61 kcal/mol, the denaturant m value was 6.19 kcal/mol/M, the “denaturant midpoint” value was found to be 1.38 M and the unfolding free energy was determined as 8.53 kcal/mol.
Take MKIAGIDEAGRGPVAGPMVIAAVVVDENSLPKLEELKVRDSKKLTPKRREKLFNEILGVLDDYVILELPPDVIGSREGTLNEFEVENFAKALNSLKVKPDVIYADAADVDEERFARELGERLNFEAEVVAKHKADDIFPVVSAASILAKVTRDRAVEKLKEEYGEIGSGYPSDPRTRAFLENYYREHGEFPPIVRKGWKTLKKIAEKVESEKKAEERQATLDRYFRKV [I15A]: the “ddG of mutation (higher = less stable)” value was found to be 2.13 kcal/mol, the denaturant m value stood at 4.3 kcal/mol/M, the “denaturant midpoint” value turned out to be 1.47 M and the unfolding free energy was determined as 6.31 kcal/mol.
In the case of MKIAGIDEAGRGPVIGPMVIAAVVVDENSLPKLEELKVRDSKKLTPKRREKLFNEILGVLDDYVILELPPDVIGSREGTLNEFEVENFAKALNSLKVKPDVAYADAADVDEERFARELGERLNFEAEVVAKHKADDIFPVVSAASILAKVTRDRAVEKLKEEYGEIGSGYPSDPRTRAFLENYYREHGEFPPIVRKGWKTLKKIAEKVESEKKAEERQATLDRYFRKV [I102A], the “ddG of mutation (higher = less stable)” value was 4.04 kcal/mol, the denaturant m value was found to be 5.9 kcal/mol/M, the “denaturant midpoint” value stood at 1.12 M and the unfolding free energy was 6.62 kcal/mol. The Tm came to 73.8 °C and the “change of melting temperature, mutant” value is -10.7 °C.
Turning to MKIAGIDEAGRGPVIGPMVIAAVVVDENSLPKLEELKVRDSKKLTPKRREKLFNEILGVLDDYVILELPPDVIGSREGTLNEFEVENFAKAANSLKVKPDVIYADAADVDEERFARELGERLNFEAEVVAKHKADDIFPVVSAASILAKVTRDRAVEKLKEEYGEIGSGYPSDPRTRAFLENYYREHGEFPPIVRKGWKTLKKIAEKVESEKKAEERQATLDRYFRKV [L92A], the “ddG of mutation (higher = less stable)” value is 2.87 kcal/mol, the denaturant m value was determined as 6 kcal/mol/M, the “denaturant midpoint” value was 1.33 M and the unfolding free energy was found to be 8.01 kcal/mol. Also, the Tm turned out to be 78.9 °C and the “change of melting temperature, mutant” value was -5.6 °C.
Regarding MKIAGIDEAGRGPVIGPMVIAAVVVDENSLPKAEELKVRDSKKLTPKRREKLFNEILGVLDDYVILELPPDVIGSREGTLNEFEVENFAKALNSLKVKPDVIYADAADVDEERFARELGERLNFEAEVVAKHKADDIFPVVSAASILAKVTRDRAVEKLKEEYGEIGSGYPSDPRTRAFLENYYREHGEFPPIVRKGWKTLKKIAEKVESEKKAEERQATLDRYFRKV [L33A], the midpoint of thermal melting (Tm) came out at 72.6 °C and the “change of melting temperature, mutant” value is -11.9 °C.

The values are drawn from FireProtDB (doi:10.1016/j.jmb.2008.02.039).
